Experimental data taken from publication PMC4167695, “Activation of c-Myc and Cyclin D1 by JCV T-Antigen and β-Catenin in Colon Cancer” (PLoS ONE, 2014).

Molecular target: T1, β-catenin (human (endogenous in HCT116), UniProt P35222 1-781)
T1 sequence (looked up): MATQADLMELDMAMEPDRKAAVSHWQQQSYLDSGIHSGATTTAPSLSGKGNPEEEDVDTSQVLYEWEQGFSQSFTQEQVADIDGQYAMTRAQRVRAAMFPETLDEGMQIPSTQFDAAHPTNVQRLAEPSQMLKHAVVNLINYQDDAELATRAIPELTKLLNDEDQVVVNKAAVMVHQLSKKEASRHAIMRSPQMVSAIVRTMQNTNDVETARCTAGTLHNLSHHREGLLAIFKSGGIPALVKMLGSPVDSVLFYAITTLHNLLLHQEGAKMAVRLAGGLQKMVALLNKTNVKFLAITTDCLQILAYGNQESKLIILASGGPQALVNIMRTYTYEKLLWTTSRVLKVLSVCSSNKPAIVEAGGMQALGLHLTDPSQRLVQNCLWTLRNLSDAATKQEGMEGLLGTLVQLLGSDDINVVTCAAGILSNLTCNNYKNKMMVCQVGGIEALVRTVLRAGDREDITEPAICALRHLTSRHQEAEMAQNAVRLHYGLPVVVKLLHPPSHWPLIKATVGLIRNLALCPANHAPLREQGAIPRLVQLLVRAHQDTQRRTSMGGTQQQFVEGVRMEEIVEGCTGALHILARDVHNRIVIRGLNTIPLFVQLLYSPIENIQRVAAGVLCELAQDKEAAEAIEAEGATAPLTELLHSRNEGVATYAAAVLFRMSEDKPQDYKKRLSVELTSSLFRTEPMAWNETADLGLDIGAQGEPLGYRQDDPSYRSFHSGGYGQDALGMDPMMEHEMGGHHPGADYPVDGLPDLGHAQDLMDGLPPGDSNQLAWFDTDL
Test: cell-based or functional assay

B1: JCV T-Antigen (natural protein)
chain: MDKVLNREESMELMDLLGLDRSAWGNIPVMRKAYLKKCKELHPDKGGDEDKMKRMNFLYKKMEQGVKVAHQPDFGTWNSSEVPTYGTDEWESWWNTFNEKWDEDLFCHEEMFASDDENTGSQHSTPPKKKKKVEDPKDFPVDLHAFLSQAVFSNRTVASFAVYTTKEKAQILYKKLMEKYSVTFISRHGFGGHNILFFLTPHRHRVSAINNYCQKLCTFSFLICKGVNKEYLFYSALCRQPYAVVEESIQGGLKEHDFNPEEPEETKQVSWKLVTQYALETKCEDVFLLMGMYLDFQENPQQCKKCEKKDQPNHFNHHEKHYYNAQIFADSKNQKSICQQAVDTVAAKQRVDSIHMTREEMLVERFNFLLDKMDLIFGAHGNAVLEQYMAGVAWIHCLLPQMDTVIYDFLKCIVLNIPKKRYWLFKGPIDSGKTTLAAALLDLCGGKSLNVNMPLERLNFELGVGIDQFMVVFEDVKGTGAESRDLPSGHGISNLDCLRDYLDGSVKVNLERKHQNKRTQVFPPGIVTMNEYSVPRTLQARFVRQIDFRPKAYLRKSLSCSEYLLEKRILQSGMTLLLLLIWFRPVADFAAAIHERIVQWKERLDLEISMYTFSTMKANVGMGRPILDFPREEDSEAEDSGHGSSTESQSQCFSQVSEASGADTQENCTFHICKGFQCFKKPKTPPPK
Cyclin D1 promoter luciferase activity in HCT116 cells co-transfected with T-Antigen and β-catenin, over empty vector controls: 11.7 fold | TOPflash (TCF-dependent luciferase reporter) activity in HCT116 cells co-transfected with T-Antigen and exogenous β-catenin, 24 hours post-transfection, normalized to FOPflash: 113 fold | c-Myc promoter luciferase activity in HCT116 cells co-transfected with T-Antigen and β-catenin, over empty vector controls: 6.1 fold
